The source of these data is the supplement of paper PMC10567573.

± gives the standard deviation.

A short description of this data set: protein stability index of a GFP-peptide fusion (GPS, HEK-293T) (PSI 1-6); higher = more stable.
[1] abbreviates: treatment: DMSO, c terminus: a fixed tail appended.
The mark [2] stands for this setting: treatment: MLN4924 1 uM, 8 h, c terminus: a fixed tail appended.
Where [3] appears, read: treatment: DMSO, c terminus: native.
The mark [4] stands for this setting: treatment: MLN4924 1 uM, 8 h, c terminus: native.
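Further: 24-mer peptide tiles fused after GFP, lentivirally expressed, FACS-sorted into six equal bins by GFP/DsRed ratio, decoded by Illumina sequencing, PSI is the read-weighted mean bin number.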

With RELREVRRVPPRFSIPPTNHEIMP [PTPRD], the protein stability index reads like this: under setting [1], 3.74 ± 0.093; under setting [2], 3.88 ± 0.14.
YYYMGFYIHSCPKMKYKGQYRPSD [ATE1]: the protein stability index amounted to 2.25 ± 0.82 under setting [1] and 2.45 ± 0.2 under setting [2].
EYMKNLLKVGGILVMPLEEKLTKI [PCMTD2] registered a protein stability index under setting [1] of 2.73 ± 0.36 and a protein stability index under setting [2] of 2.13 ± 0.33.
The matching figures for LEAHCVEFLTKHLRADNAFMLLTQ [BTBD1]: 2.55 ± 0.76 and 2.81 ± 0.47.
VFPIKHYQDKIRPYIQLPSHSNIT [TRIB1] registered a protein stability index under setting [1] of 2.5 ± 0.22 and a protein stability index under setting [2] of 2.62 ± 0.22.
As to ISLINTRMLFWACSTNKPEGYRVS [FAF2], the protein stability index under setting [1] stood at 2.5 ± 0.61 and the protein stability index under setting [2] was found to be 2.35 ± 0.39.
Consider FVAENSSLHPESGQENDATSPHFS [CD69], for which the protein stability index by setting is: under setting [1], 3.74 ± 0.56; under setting [2], 4.23 ± 0.42.
Consider ACDIRVAASSAKMGLVETKLAIIP [AUH], for which the protein stability index under setting [1] was 2.95 ± 0.22 and the protein stability index under setting [2] is 3.03 ± 0.32.
With RARDSPEPGAGLGIGDMAFEGDMG [PSD2], the protein stability index came out at 4.73 ± 0.13 under setting [1] and 4.91 ± 0.15 under setting [2].
For the sequence TNSTPLRAACFDGHLEVVRYLVGE [FEM1A], the protein stability index by setting is: under setting [1], 2.32 ± 0.18; under setting [2], 2.4 ± 0.31.
In the case of FAWPFYQPVDAIKLNLPDYHKIIK [BRD3], the protein stability index reads like this: under setting [1], 2.24 ± 0.67; under setting [2], 2.19 ± 0.25.
In the case of NVNRLNESFRDLQLRLLQAPLQAD [SCARA5], the protein stability index was 3.3 ± 0.38 under setting [1] and 3.33 ± 0.34 under setting [2].
As to LIIQAGIKEVIFMSDKYHDSDEAT [DCTD], the protein stability index is, setting by setting: under setting [1], 2.16 ± 0.28; under setting [2], 2.08 ± 0.089.
On the same counts, the results for PVHLIDKLPLPVTIKSHLKSFSMA [RAB40C] are 2.3 ± 0.081 and 2.34 ± 0.039.
With KLTLENFYSNLILQHEERETRQKK [STK38L], the protein stability index reads like this: under setting [1], 3.24 ± 0.39; under setting [2], 3.29 ± 0.46.
In the case of PDITSSRYRGLPAPGPSPADKKRS [WAS], the protein stability index runs as follows: under setting [1], 5.22 ± 0.097; under setting [2], 5.271 ± 0.036.
The matching figures for AGHRRPAGGIRESKESSKEKKLTV [C22orf31]: 5.05 ± 0.41 and 4.86 ± 0.38.
Turning to LRHFFLVEDLVDSLKLALLFYILT [RTN2], the protein stability index is 2.79 ± 0.79 under setting [1] and 2.45 ± 0.15 under setting [2].
For the sequence EDQAEAWGCSCCPPETKHQALSGT [TSPAN10], the protein stability index by setting is: under setting [1], 4.71 ± 0.31; under setting [2], 4.67 ± 0.18.
Sequence VPECRLAEDLGNLWENTRFTDCSF [SPOPL] had a protein stability index under setting [1] of 2.74 ± 0.34 and a protein stability index under setting [2] of 3.21 ± 0.44.
As to TSECPSDKDKSPESHKAKNESWIK [C10orf62], the protein stability index by setting is: under setting [1], 3.58 ± 0.65; under setting [2], 4.18 ± 0.7.
The matching figures for LLYKDGFSTILHLLLGSPHPAATA [LPCAT4]: 2.71 ± 0.28 and 2.57 ± 0.54.
In the case of FSGCLNCSKVSELTERLKVLEAKM [EMID1], the protein stability index turned out to be 2.83 ± 0.29 under setting [1] and 2.926 ± 0.029 under setting [2].
In the case of YAPPPTPAPATQMPSTPGFVGYNP [SMARCE1], the protein stability index is 3.01 ± 0.36 under setting [1] and 3.72 ± 0.32 under setting [2].
Regarding AEAGHVDICHMLVQFCRLGSPRSR [EHMT1], the protein stability index reads like this: under setting [1], 2.3 ± 0.17; under setting [2], 2.37 ± 0.34.
For AEISARTMQSMFAKNFHVKAVMKT [PTPRD], the protein stability index is 2.56 ± 0.32 under setting [1] and 2.67 ± 0.39 under setting [2].
Turning to HRRRTICGTPNYLSPEVLNKQGHG [PLK2], the protein stability index reads like this: under setting [1], 3.99 ± 0.19; under setting [2], 4.17 ± 0.17.
Take ISEAFSQRVGFGDDFDEDELMAEL [CHMP4C]: the protein stability index runs as follows: under setting [1], 4.86 ± 0.32; under setting [2], 5.07 ± 0.2.
On the same counts, the results for VAQTSLEEFNVLEMEVMRRQLYAV [FATE1] are 2.31 ± 0.37 and 2.21 ± 0.44.
Turning to CIMDDAINILQNEKSHQVLAQLLD [INTS4], the protein stability index runs as follows: under setting [1], 2.18 ± 0.21; under setting [2], 2.37 ± 0.23.
Take VFSTMAGLEEADAEVSVISEADPQ [FBF1]: the protein stability index under setting [1] worked out at 5.18 ± 0.36 and the protein stability index under setting [2] turned out to be 5.26 ± 0.25.
VGLVTNQLSHIKAKIRAKIPGTGA [RTN2]: the protein stability index was 2.79 ± 0.16 under setting [1] and 2.9 ± 0.11 under setting [2].
On to THLLMGLASGRIILILEGGYNLTS [HDAC6], for which the protein stability index reads like this: under setting [1], 2.89 ± 0.46; under setting [2], 3.02 ± 0.58.
SLLQSAWMEILILGVVYRSLSFED [ESRRG]: the protein stability index was 3.09 ± 0.26 under setting [1] and 3.07 ± 0.22 under setting [2].
Regarding SAWKTVACGGTRDQLFMQEKARQL [MYBL2], the protein stability index runs as follows: under setting [1], 3.21 ± 0.33; under setting [2], 3.33 ± 0.28.
In turn, CRNGSSIQIAFEEVPQLPPRASIS [C2CD2L] yielded a protein stability index under setting [1] of 3.03 ± 0.34 and a protein stability index under setting [2] of 2.98 ± 0.16.
In the case of EERAKAKHLARQLEEKDRVLKKQD [CHCHD3], the protein stability index by setting is: under setting [1], 5.51 ± 0.14; under setting [2], 5.42 ± 0.16.
For the sequence PEAEENKQIIRKHAQTFVALCATD [CCND1], the protein stability index runs as follows: under setting [1], 3.4 ± 0.73; under setting [2], 3.81 ± 0.71.
Turning to TTTVTAVTAEVDLFGDAFAASPGE [SNAP91], the protein stability index is, setting by setting: under setting [1], 4.54 ± 0.13; under setting [2], 4.59 ± 0.28.
For the sequence VAACTKEIDTQGRHLAHSMLQRAI [C10orf62], the protein stability index was determined as 2.86 ± 0.41 under setting [1] and 2.9 ± 0.14 under setting [2].
EEWGQLDPTQRILYRDVMLETFGH [ZNF8]: the protein stability index under setting [1] came to 2.91 ± 0.32 and the protein stability index under setting [2] was found to be 3.22 ± 0.38.
Take MIIVAISPKYKQDVEGAESQLDED [TRAF3IP2]: the protein stability index under setting [1] was 2.52 ± 0.14 and the protein stability index under setting [2] is 2.26 ± 0.25.
On to LGRFSLTPAEGDTEEDDGFVDILE [CDC25B], for which the protein stability index worked out at 4.66 ± 0.74 under setting [1] and 5.06 ± 0.1 under setting [2].
The matching figures for TNNNIKQRLIKKVQEAVLDKWVND [GOLPH3]: 2.37 ± 0.4 and 2.36 ± 0.31.
The matching figures for LIGAAAFLGGVVRMTISLTVILIE [CLCN6]: 3.27 ± 0.53 and 2.75 ± 1.3.
As for EDLMPLAAAYGHALEQYEGESWRE [P3H4], the protein stability index runs as follows: under setting [1], 4.59 ± 0.53; under setting [2], 4.86 ± 0.17.
In the case of QVDVGDVNDNAPEVLLASLANPVL [PCDHGC5], the protein stability index was found to be 4.07 ± 0.28 under setting [1] and 4.21 ± 0.31 under setting [2].
The matching figures for YKKIYFCHSCQLYLPSTEFSVSST [IQUB]: 2.39 ± 0.23 and 2.08 ± 0.22.
On the same counts, the results for VEMDIYTALKKWMFLQLVPSWNGS [GMCL1] are 2.65 ± 0.092 and 2.66 ± 0.65.
In the case of GKKQVPCFASMLTKKLHFFPKSN [CASP6], the protein stability index runs as follows: under setting [3], 2.82 ± 0.27; under setting [4], 3.51 ± 0.69.
Turning to EAARLEYDAYRTDLEELSLGPRDA [ARFIP2], the protein stability index turned out to be 4.78 ± 0.15 under setting [1] and 4.86 ± 0.15 under setting [2].
Take WGEGLHQLREALKILAERVLILET [EMID1]: the protein stability index is, setting by setting: under setting [1], 2.47 ± 0.24; under setting [2], 2.78 ± 0.31.
Turning to SNWYITFQSDTDAQQAFILKRRS [LARP4], the protein stability index is, setting by setting: under setting [3], 2.93 ± 0.3; under setting [4], 2.21 ± 0.41.
With KETLRLHPDIFLPSEICDRLVNEY [ZER1], the protein stability index by setting is: under setting [1], 2.82 ± 0.39; under setting [2], 2.83 ± 0.21.
The matching figures for AIIGWLLTTCTSNVAASNAKLALF [INTS3]: 3.13 ± 0.21 and 3 ± 0.45.
As for EFSLVNVNLQRFGMNGQMLCNLGK [ETS2], the protein stability index came to 2.32 ± 0.4 under setting [1] and 2.58 ± 0.16 under setting [2].
For RKLSLKGHNDWVMDVAISNNKKWI [WDR88], the protein stability index by setting is: under setting [1], 2.69 ± 0.42; under setting [2], 2.39 ± 0.29.
In the case of LKRSIPQVSPVRRAPSRRHGVRAK [CPN1], the protein stability index reads like this: under setting [1], 4.58 ± 0.23; under setting [2], 4.67 ± 0.17.
In the case of RESFTSRQKTSGPSVIQEIHQESG [C10orf62], the protein stability index under setting [1] worked out at 4.94 ± 0.099 and the protein stability index under setting [2] worked out at 5.02 ± 0.24.
On to TSGVAAVQDWYHFHYVDILALLPA [SCNN1D], for which the protein stability index by setting is: under setting [1], 2.42 ± 0.44; under setting [2], 2.35 ± 0.24.
In the case of HFSLRVQSRANGVKYPELVLEHSL [PCDHGA10], the protein stability index reads like this: under setting [1], 2.35 ± 0.29; under setting [2], 2.27 ± 0.35.
The matching figures for LAQTRAEGQRQAQEYEALLNIKVK [KRT18]: 4.26 ± 0.38 and 4.17 ± 0.15.
With SRLQEDPEGTENPLGVDESLFSYG [SLA], the protein stability index is 4.91 ± 0.058 under setting [1] and 4.66 ± 0.69 under setting [2].
Turning to EMWADQLTSLKDLYKSLKTLSAEL [CEP70], the protein stability index worked out at 2.3 ± 0.18 under setting [1] and 2.1 ± 0.25 under setting [2].
Regarding TVEQGCQILDSLSYMRNENVISEL [FBXO39], the protein stability index by setting is: under setting [1], 3.5 ± 0.43; under setting [2], 3.41 ± 0.42.
For the sequence VGEVLKDIETACKLLNITADPMDW [SPDEF], the protein stability index runs as follows: under setting [1], 2.71 ± 0.17; under setting [2], 2.51 ± 0.27.
For PHQCSECGRAFSRKSLLVVHQRTH [ZNF649], the protein stability index is 4.93 ± 0.2 under setting [1] and 5.12 ± 0.16 under setting [2].
In turn, LNLGSGTGYLSTMVGLILGPFGIN [PCMTD1] returned a protein stability index under setting [1] of 3.33 ± 0.73 and a protein stability index under setting [2] of 2.87 ± 0.49.
RHLAHSMLQRAIAYQHSGHLESKD [C10orf62]: the protein stability index is 3.91 ± 0.24 under setting [1] and 3.92 ± 0.21 under setting [2].
For SIPKLKLTRPVPAGADLPPPKIRL [PWWP2B], the protein stability index turned out to be 3.45 ± 0.23 under setting [1] and 3.63 ± 0.35 under setting [2].
The matching figures for ELFAWGRGDSGRLGLGTRESHSCP [NEK8]: 2.95 ± 0.26 and 3.27 ± 0.22.
For the sequence PALEEAPDSHQKRPQHSHSNKKRP [ELOA2], the protein stability index runs as follows: under setting [1], 5.52 ± 0.25; under setting [2], 5.33 ± 0.46.
